In patent publication US20150266963A1 (ARGEN X B V, published 2015):

How the values were obtained:
[1] = biological target: T1, human CD70 expressed on the surface of cells (human, UniProt P32970 1-193); experiment: FACS MFI at 37 C, HH cells; reference SGN70
T1 construct: whole, on cells; also called cell surface expressed CD70; CD70 on cells
T1 sequence (looked up): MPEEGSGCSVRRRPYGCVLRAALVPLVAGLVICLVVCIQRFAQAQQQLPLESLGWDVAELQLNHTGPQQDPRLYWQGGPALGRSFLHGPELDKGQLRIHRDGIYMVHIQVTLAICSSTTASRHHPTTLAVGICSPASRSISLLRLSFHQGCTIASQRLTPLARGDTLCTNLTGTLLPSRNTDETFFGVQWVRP
Procedure: (§1) Several cancer cell lines were tested by FACS analysis for binding of ARGX-110 and SGN70 (described in US2010/0129362) at saturating mAb concentrations (at least 2 μg/ml). This was either done at 4° C. (1 hour incubation of cells with mAbs) or at 37° C. (15 minutes incubation of cells with mAbs). Binding was detected using anti-hIgG1-Fc-FITC (AF006, Binding Site) or anti-hIgG1-Fc-PE antibody (eBioscience, 12-4998). Fluorescence was measured using a flow cytometer.

[2] = biological target: T1, human CD70 expressed on the surface of …; experiment: FACS MFI at 37 C, A498 cells; reference SGN70
Procedure: as §1

[3] = biological target: T1, human CD70 expressed on the surface of …; experiment: FACS MFI at 37 C, A549 cells; reference SGN70
Procedure: as §1

[4] = biological target: T1, human CD70 expressed on the surface of …; experiment: FACS MFI at 37 C, L428 cells; reference SGN70
Procedure: as §1

[5] = biological target: T1, human CD70 expressed on the surface of …; experiment: FACS MFI at 37 C, U87MG cells; reference SGN70
Procedure: as §1

[6] = biological target: T1, human CD70 expressed on the surface of …; experiment: FACS MFI at 37 C, Granta 519 cells; reference SGN70
Procedure: as §1

mouse Flag-TNC-CD70 = biological target: T2, mouse Flag-TNC-CD70 (mouse, UniProt O55237 45-195); experiment: ELISA; mouse Flag-TNC-CD70 captured by anti-Flag mAb
T2 construct: extracellular domain; also called mouse CD70; not shown: Flag tag and TNC trimerisation domain
T2 sequence (looked up): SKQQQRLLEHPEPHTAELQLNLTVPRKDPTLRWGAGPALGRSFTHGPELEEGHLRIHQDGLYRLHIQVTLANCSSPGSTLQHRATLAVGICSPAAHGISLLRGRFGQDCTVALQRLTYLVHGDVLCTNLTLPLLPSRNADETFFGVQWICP

[7] = biological target: T3, recombinant human CD70 (Flag-TNC-CD70) (human, UniProt P32970 39-193); experiment: blocking ELISA; human Flag-TNC-CD70; competitor CD27-Fc
T3 construct: extracellular domain; Captured by anti-Flag mAb in ELISA; as 'recombinant human CD70' immobilised on Biacore CM5 chips; TNC is for trimerisation; also called recombinant CD70; human recombinant CD70; not shown: Flag tag and TNC trimerisation domain
T3 sequence (looked up): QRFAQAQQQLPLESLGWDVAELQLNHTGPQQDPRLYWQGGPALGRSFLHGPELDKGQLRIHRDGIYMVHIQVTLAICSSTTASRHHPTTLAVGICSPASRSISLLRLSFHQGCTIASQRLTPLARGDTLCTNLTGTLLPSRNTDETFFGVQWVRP
Procedure: (§2) In this assay, a microtiter plate (Nunc Maxisorb) was first coated with 100 μl anti-FLAG M2 monoclonal antibody (Sigma Aldrich, F3165) at 1250-fold dilution in PBS (to achieve a final concentration of approximately 3.5 μg/ml) overnight at 4° C. The plate was washed once with PBS-Tween and incubated at RT for 2 hours with 300 μl PBS-1% casein. The plate was washed a further three times with PBS-Tween. 100 μl of 5 ng/ml (80 pM) Flag-TNC-CD70 (The Journal of Immunology, 2009, 183: 1851-1861) diluted in PBS-0.1% casein was added to the plate and incubated at RT for 1 hour while shaking. The plate was washed five times with PBS-Tween. The CD70 mAb to be tested was added to the plate; various concentrations were achieved by diluting the stock antibody solution in PBS-0.1% casein. Immediately thereafter, 50 μl of 1 μg/ml (final concentration 6.5 nM) recombinant human CD27 Fc chimera (R&D systems 382-CD, MW=46.5 kDa) was added, and incubated at RT for 1 hour while shaking. The plate was washed five times with PBS Tween. 100 μl of biotinylated anti-CD27 (eBioscience 13-0271), diluted 500-fold in PBS-0.1% casein, was added, and the plate incubated at RT for a further hour, while shaking. The plate was washed five times with PBS Tween. […] 100 μl TMB was added to the plate and the OD at 620 nm was measured. […]

[8] = biological target: T3, recombinant human CD70 (Flag-TNC-CD70); experiment: blocking ELISA; competitor CD27-Fc; references SGN70 and MDX1411
Procedure: as §2

[9] = biological target: cynomolgus monkey Flag-TNC-CD70 (cynomolgus monkey); experiment: blocking ELISA; cynomolgus Flag-TNC-CD70; competitor CD27-Fc
Procedure: as §2

B1: ARGX-110 (non-fucosylated 41D12 human IgG1) (antibody, V domains shown)
VH: EVQLVESGGGLVQPGGSLRLSCAASGFTFSVYYMNWVRQAPGKGLEWVSDINNEGGTTYYADSVKGRFTISRDNSKNSLYLQMNSLRAEDTAVYYCARDAGYSNHVPIFDSWGQGTLVTVSS
VL: QAVVTQEPSLTVSPGGTVTLTCGLKSGSVTSDNFPTWYQQTPGQAPRLLIYNTNTRHSGVPDRFSGSILGNKAALTITGAQADDEAEYFCALFISNPSVEFGGGTQLTVLG
notes: also called 41D12 (ARGX-110)
Question: What does the source list for B1?
Answer: Signal in FACS of ARGX-110/signal in FACS of SGN70 [1]: 1.7 ratio; Signal in FACS of ARGX-110/signal in FACS of SGN70 [2]: 1 ratio; Signal in FACS of ARGX-110/signal in FACS of SGN70 [3]: 3.8 ratio; Signal in FACS of ARGX-110/signal in FACS of SGN70 [4]: 1.4 ratio; Signal in FACS of ARGX-110/signal in FACS of SGN70 [5]: 2 ratio; Signal in FACS of ARGX-110/signal in FACS of SGN70 [6]: 0.9 ratio; binding result (mouse Flag-TNC-CD70): no binding (tested: dilution series from 10 µg/ml); IC50 [7]: 0.039 µg/mL; fold more potent in blocking than the two benchmark mAbs [8]: ~100 fold; IC50 [9]: 0.048 µg/mL
